Source: the supplement of paper PMC10567573

B1: RAB22A (parent)
chain: FVEDSFDPNINPTIGASFMTKTVQ

Variants of: B1
Assay: protein stability index of a GFP-peptide fusion (GPS, HEK-293T) (PSI 1-6); higher = more stable
Conditions: c terminus: a fixed tail appended
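Also: lentivirally expressed fusions sorted by FACS into six bins by GFP to DsRed ratio, PSI derived from sequencing read proportions per bin multiplied by bin number.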

Variant	protein stability index
FVPDSFDPNINPTIGASFMTKTVQ	2.95
FVYDSFDPNINPTIGASFMTKTVQ	1.75
FVSDSFDPNINPTIGASFMTKTVQ	2.8
FVTDSFDPNINPTIGASFMTKTVQ	1.57
FVIDSFDPNINPTIGASFMTKTVQ	1.88
FVADSFDPNINPTIGASFMTKTVQ	1.93
FVWDSFDPNINPTIGASFMTKTVQ	1.72
FVLDSFDPNINPTIGASFMTKTVQ	1.78
FVKDSFDPNINPTIGASFMTKTVQ	1.88
FVEDSFGPNINPTIGASFMTKTVQ	1.79
FVEDSFLPNINPTIGASFMTKTVQ	2.15
FVEDSFEPNINPTIGASFMTKTVQ	2.36
FVEDSFIPNINPTIGASFMTKTVQ	2
FVEDSFKPNINPTIGASFMTKTVQ	2.09
FVEDSFFPNINPTIGASFMTKTVQ	2.75
FVEDSFAPNINPTIGASFMTKTVQ	1.96
FVEDSFCPNINPTIGASFMTKTVQ	1.98
FVEDSFHPNINPTIGASFMTKTVQ	2
FVEDSGDPNINPTIGASFMTKTVQ	3.27
FVEDSHDPNINPTIGASFMTKTVQ	2.58
FVEDSIDPNINPTIGASFMTKTVQ	2.56
FVEDSRDPNINPTIGASFMTKTVQ	2.36
FVEDSSDPNINPTIGASFMTKTVQ	2.99
FVEDSADPNINPTIGASFMTKTVQ	2.83

Variant	protein stability index
FVEDSDDPNINPTIGASFMTKTVQ	3.85
FVEDSWDPNINPTIGASFMTKTVQ	1.76
FVEDSPDPNINPTIGASFMTKTVQ	2.74
FVEDSEDPNINPTIGASFMTKTVQ	4.08
FVEDSCDPNINPTIGASFMTKTVQ	2.67
FVEDSTDPNINPTIGASFMTKTVQ	2.89
FVEDSNDPNINPTIGASFMTKTVQ	2.9
FVEDSQDPNINPTIGASFMTKTVQ	2.88
FVEDSMDPNINPTIGASFMTKTVQ	2.69
FVEDSVDPNINPTIGASFMTKTVQ	3.31
FVEDSLDPNINPTIGASFMTKTVQ	2.56
FVEDSYDPNINPTIGASFMTKTVQ	2.02
FVEDSKDPNINPTIGASFMTKTVQ	2.71
FVEDKFDPNINPTIGASFMTKTVQ	2.1
FVEDTFDPNINPTIGASFMTKTVQ	2.34
FVEDQFDPNINPTIGASFMTKTVQ	2.65
FVEDHFDPNINPTIGASFMTKTVQ	1.74
FVEDVFDPNINPTIGASFMTKTVQ	1.89
FVEDIFDPNINPTIGASFMTKTVQ	2.18
FVEDFFDPNINPTIGASFMTKTVQ	2.92
FVEDAFDPNINPTIGASFMTKTVQ	2.16
FVEDMFDPNINPTIGASFMTKTVQ	1.99
FVEDNFDPNINPTIGASFMTKTVQ	2.64
FVEDLFDPNINPTIGASFMTKTVQ	1.97

Variant	protein stability index
FVEDCFDPNINPTIGASFMTKTVQ	2.03
FVEDPFDPNINPTIGASFMTKTVQ	1.96
FVEDDFDPNINPTIGASFMTKTVQ	3.27
FVEDWFDPNINPTIGASFMTKTVQ	1.52
FVEDRFDPNINPTIGASFMTKTVQ	1.93
FVEDEFDPNINPTIGASFMTKTVQ	3.63
FVEDYFDPNINPTIGASFMTKTVQ	1.98
FVEDGFDPNINPTIGASFMTKTVQ	2.08
FLEDSFDPNINPTIGASFMTKTVQ	3.29
FIEDSFDPNINPTIGASFMTKTVQ	2.81
FPEDSFDPNINPTIGASFMTKTVQ	4.33
FMEDSFDPNINPTIGASFMTKTVQ	3.62
FFEDSFDPNINPTIGASFMTKTVQ	2.89
FEEDSFDPNINPTIGASFMTKTVQ	3.95
FYEDSFDPNINPTIGASFMTKTVQ	3.19
FQEDSFDPNINPTIGASFMTKTVQ	3.8
FAEDSFDPNINPTIGASFMTKTVQ	3.54
FCEDSFDPNINPTIGASFMTKTVQ	3.14
FSEDSFDPNINPTIGASFMTKTVQ	3.99
FNEDSFDPNINPTIGASFMTKTVQ	3.62
FKEDSFDPNINPTIGASFMTKTVQ	3.69
FTEDSFDPNINPTIGASFMTKTVQ	3.68
FHEDSFDPNINPTIGASFMTKTVQ	3.61
FREDSFDPNINPTIGASFMTKTVQ	3.48

Variant	protein stability index
FGEDSFDPNINPTIGASFMTKTVQ	3.77
FDEDSFDPNINPTIGASFMTKTVQ	4.03
FWEDSFDPNINPTIGASFMTKTVQ	2.51
DVEDSFDPNINPTIGASFMTKTVQ	4.45
SVEDSFDPNINPTIGASFMTKTVQ	3.98
NVEDSFDPNINPTIGASFMTKTVQ	4.44
VVEDSFDPNINPTIGASFMTKTVQ	3.79
AVEDSFDPNINPTIGASFMTKTVQ	4.1
HVEDSFDPNINPTIGASFMTKTVQ	4.25
WVEDSFDPNINPTIGASFMTKTVQ	3.41
RVEDSFDPNINPTIGASFMTKTVQ	4.24
IVEDSFDPNINPTIGASFMTKTVQ	3.72
EVEDSFDPNINPTIGASFMTKTVQ	4.66
PVEDSFDPNINPTIGASFMTKTVQ	4.42
MVEDSFDPNINPTIGASFMTKTVQ	3.61
QVEDSFDPNINPTIGASFMTKTVQ	4.25
CVEDSFDPNINPTIGASFMTKTVQ	3.75
YVEDSFDPNINPTIGASFMTKTVQ	2.91
GVEDSFDPNINPTIGASFMTKTVQ	4.4
TVEDSFDPNINPTIGASFMTKTVQ	4.36
KVEDSFDPNINPTIGASFMTKTVQ	4.2
LVEDSFDPNINPTIGASFMTKTVQ	3.51
